pKd: −log10 of the molar value.
Assays:
[1] = target: HLA-A*01:01; assay: IEDB peptide-MHC binding, purified MHC/direct/fluorescence; filed as Kd, often an IC50 or EC50 that approximates it; ≥ and ≤ were set here for values at or beyond the usual limits of such assays; conditions: source organism: Salmonella enterica
[2] = target: HLA-A*02:01; assay: as above; conditions: source organism: Salmonella enterica
[3] = target: HLA-A*02:11; assay: as above; conditions: source organism: Salmonella enterica subsp. enterica serovar Typhimurium str. LT2
[4] = target: HLA-A*02:12; assay: as above; conditions: source organism: Salmonella enterica subsp. enterica serovar Typhimurium str. LT2
[5] = target: HLA-A*02:19; assay: as above; conditions: source organism: Salmonella enterica subsp. enterica serovar Typhimurium str. LT2
[6] = target: HLA-A*02:50; assay: as above; conditions: source organism: Salmonella enterica subsp. enterica serovar Typhimurium str. LT2
[7] = target: HLA-A*03:01; assay: as above; conditions: source organism: Salmonella enterica
[8] = target: HLA-A*11:01; assay: as above; conditions: source organism: Salmonella enterica
[9] = target: HLA-A*23:01; assay: as above; conditions: source organism: Salmonella enterica subsp. enterica serovar Typhimurium str. LT2
[10] = target: HLA-A*29:02; assay: as above; conditions: source organism: Salmonella enterica subsp. enterica serovar Typhimurium str. LT2
[11] = target: HLA-A*31:01; assay: as above; conditions: source organism: Salmonella enterica
[12] = target: HLA-A*69:01; assay: as above; conditions: source organism: Salmonella enterica
[13] = target: HLA-B*08:01; assay: as above; conditions: source organism: Salmonella enterica subsp. enterica serovar Typhimurium str. LT2
[14] = target: HLA-B*08:02; assay: as above; conditions: source organism: Salmonella enterica subsp. enterica serovar Typhimurium str. LT2
[15] = target: HLA-B*18:01; assay: as above; conditions: source organism: Salmonella enterica subsp. enterica serovar Typhimurium str. LT2
[16] = target: HLA-B*38:01; assay: as above; conditions: source organism: Salmonella enterica subsp. enterica serovar Typhimurium str. LT2
[17] = target: HLA-B*51:01; assay: as above; conditions: source organism: Salmonella enterica subsp. enterica serovar Typhimurium str. LT2
[18] = target: HLA-A*02:03; assay: IEDB peptide-MHC binding, purified MHC/competitive/fluorescence; filed as Kd, often an IC50 or EC50 that approximates it; ≥ and ≤ were set here for values at or beyond the usual limits of such assays; conditions: source organism: Salmonella enterica subsp. enterica serovar Typhimurium str. LT2
[19] = target: HLA-A*02:06; assay: as above; conditions: source organism: Salmonella enterica subsp. enterica serovar Typhimurium str. LT2
[20] = target: HLA-A*68:23; assay: as above; conditions: source organism: Salmonella enterica subsp. enterica serovar Typhimurium str. LT2
[21] = target: HLA-B*15:01; assay: as above; conditions: source organism: Salmonella enterica subsp. enterica serovar Typhimurium str. LT2
[22] = target: HLA-B*15:17; assay: as above; conditions: source organism: Salmonella enterica subsp. enterica serovar Typhimurium str. LT2
[23] = target: HLA-B*15:42; assay: as above; conditions: source organism: Salmonella enterica subsp. enterica serovar Typhimurium str. LT2
[24] = target: HLA-B*45:06; assay: as above; conditions: source organism: Salmonella enterica subsp. enterica serovar Typhimurium str. LT2
[25] = target: HLA-B*83:01; assay: as above; conditions: source organism: Salmonella enterica subsp. enterica serovar Typhimurium str. LT2

FPASHMATY
pKd [1]: ≤ 4.70 | pKd [2]: ≤ 4.70 | pKd [3]: ≤ 4.70 | pKd [4]: ≤ 4.70 | pKd [5]: ≤ 4.70 | pKd [6]: ≤ 4.70 | pKd [7]: ≤ 4.70 | pKd [8]: ≤ 4.70 | pKd [9]: ≤ 4.70 | pKd [10]: 6.94 | pKd [11]: ≤ 4.70 | pKd [12]: ≤ 4.70 | pKd [13]: ≤ 4.70 | pKd [14]: ≤ 4.70 | pKd [15]: 8.15 | pKd [16]: ≤ 4.70 | pKd [17]: ≤ 4.70 | pKd [18]: ≤ 4.70 | pKd [19]: 5.89 | pKd [20]: 8.22 | pKd [21]: 6.48 | pKd [22]: ≤ 4.70 | pKd [23]: ≤ 5.30 | pKd [24]: ≤ 5.30 | pKd [25]: 6.66
